Results from patent publication US20200055959A1 (UCB, published 2020).

Legend:
[1] = target: T1, human serum albumin (human, UniProt P02768 25-609); test: SPR, BIAcore T100; construct captured by anti-human F(ab')2 Fab or anti-CH1 mAb; HSA 50-6.25 nM as analyte; 1:1 model
T1 construct: Analyte in SPR, titrated 50-6.25 nM; also called HSA
Protocol: (§1) Single linker Fab-dsFv samples were captured to the sensor chip surface using either a human F(ab′)₂-specific goat Fab (Jackson ImmunoResearch, 109-006-097) or an in-house generated anti human CH1 monoclonal antibody. Covalent immobilisation of the capture antibody was achieved by standard amine coupling chemistry.
(§2) For kinetic assays, either a titration of human serum albumin 50-6.25 nM, or a single concentration of OX40 of 25 nM was performed. A blank flow-cell was used for reference subtraction and buffer-blank injections were included to subtract instrument noise and drift.
(§3) Kinetic parameters were determined by simultaneous global-fitting of the resulting sensorgrams to a standard 1:1 binding model using BIAcore T100 Evaluation software.

[2] = target: T1, human serum albumin; test: SPR, BIAcore T100; construct captured; HSA 50-6.25 nM as analyte; 1:1 model; repeat at end of run
Protocol: as §1, §2, §3

[3] = target: T1, human serum albumin; test: SPR, BIAcore T100; construct captured; HSA 50-6.25 nM as analyte; 1:1 model; plasmid ratio 1:1:2
Protocol: as §1, §2, §3

[4] = target: T1, human serum albumin; test: SPR, BIAcore T100; construct captured; HSA 50-6.25 nM as analyte; 1:1 model; plasmid ratio 2:1:2
Protocol: as §1, §2, §3

[5] = target: T1, human serum albumin; test: SPR, BIAcore T100; construct captured; HSA 50-6.25 nM as analyte; 1:1 model; plasmid ratio 1:1:1
Protocol: as §1, §2, §3

[6] = target: T1, human serum albumin; test: SPR, BIAcore T100; construct captured; HSA 50-6.25 nM as analyte; 1:1 model; plasmid ratio printed 1:1:1 (second such row)
Protocol: as §1, §2, §3

[7] = target: T1, human serum albumin; test: SPR, BIAcore T100; construct captured; HSA 50-6.25 nM as analyte; 1:1 model
Protocol: as §1, §2, §3

| Binder | Kd [3] | koff [3] | kon [3] | Kd [4] | koff [4] | kon [4] | Kd [5] | koff [5] | kon [5] | Kd [7] | koff [7] | kon [7] | other results |
| --- | --- | --- | --- | --- | --- | --- | --- | --- | --- | --- | --- | --- | --- |
| A26Fab-645dsFv (bispecific antibody, Expressed in HEK293; tested as supernatant; also called Fab-dsFv; A26Fab-645dsFv (start)) heavy: EVQLVESGGGLVQPGGSLRLSCAASGFTFTNYGIHWIRQAPGKGLEWVASISPSGGLTYYRDSVKGRFTISRDDAKNSPYLQMNSLRAEDTAVYYCATGGEGIFDYWGQGTLVTVSSASTKGPSVFPLAPSSKSTSGGTAALGCLVKDYFPEPVTVSWNSGALTSGVHTFPAVLQSSGLYSLSSVVTVPSSSLGTQTYICNVNHKPSNTKVDKKVEPKSCSGGGGSGGGGTGGGGSEVQLLESGGGLVQPGGSLRLSCAVSGIDLSNYAINWVRQAPGKCLEWIGIIWASGTTFYATWAKGRFTISRDNSKNTVYLQMNSLRAEDTAVYYCARTVPGYSTAPYFDLWGQGTLVTVSS light: DIQMTQSPSSLSASVGDRVTITCRATQSIYNALAWYQQKPGKAPKLLIYNANTLHTGVPSRFSASGSGTDSTLTISSLQPEDFATYYCQQYYDYPLTFGGGTKVEIKRTVAAPSVFIFPPSDEQLKSGTASVVCLLNNFYPREAKVQWKVDNALQSGNSQESVTEQDSKDSTYSLSSTLTLSKADYEKHKVYACEVTHQGLSSPVTKSFNRGECSGGGGSGGGGSGGGGSDIQMTQSPSSVSASVGDRVTITCQSSPSVWSNFLSWYQQKPGKAPKLLIYEASKLTSGVPSRFSGSGSGTDFTLTISSLQPEDFATYYCGGGYSSISDTTFGCGTKVEIKRT |  |  |  |  |  |  |  |  |  |  |  |  | Kd [1]: 2.01 nM; koff [1]: 0.000151 s⁻¹; kon [1]: 75100 M⁻¹ s⁻¹; Kd [2]: 3.11 nM; koff [2]: 0.000212 s⁻¹; kon [2]: 68200 M⁻¹ s⁻¹ |
| A26Fab-645dsscFv (HC-scFv) (bispecific antibody, To be checked by chain lengths; also called Fab-dsscFv (HC-scFv)) heavy: EVQLVESGGGLVQPGGSLRLSCAASGFTFTNYGIHWIRQAPGKGLEWVASISPSGGLTYYRDSVKGRFTISRDDAKNSPYLQMNSLRAEDTAVYYCATGGEGIFDYWGQGTLVTVSSASTKGPSVFPLAPSSKSTSGGTAALGCLVKDYFPEPVTVSWNSGALTSGVHTFPAVLQSSGLYSLSSVVTVPSSSLGTQTYICNVNHKPSNTKVDKKVEPKSCSGGGGTGGGGSEVQLLESGGGLVQPGGSLRLSCAVSGIDLSNYAINWVRQAPGKCLEWIGIIWASGTTFYATWAKGRFTISRDNSKNTVYLQMNSLRAEDTAVYYCARTVPGYSTAPYFDLWGQGTLVTVSSGGGGSGGGGSGGGGSGGGGSDIQMTQSPSSVSASVGDRVTITCQSSPSVWSNFLSWYQQKPGKAPKLLIYEASKLTSGVPSRFSGSGSGTDFTLTISSLQPEDFATYYCGGGYSSISDTTFGCGTKVEIKRT light: DIQMTQSPSSLSASVGDRVTITCRATQSIYNALAWYQQKPGKAPKLLIYNANTLHTGVPSRFSASGSGTDSTLTISSLQPEDFATYYCQQYYDYPLTFGGGTKVEIKRTVAAPSVFIFPPSDEQLKSGTASVVCLLNNFYPREAKVQWKVDNALQSGNSQESVTEQDSKDSTYSLSSTLTLSKADYEKHKVYACEVTHQGLSSPVTKSFNRGEC |  |  |  |  |  |  |  |  |  | 1.31 nM | 0.00024 s⁻¹ | 183000 M⁻¹ s⁻¹ |  |
| A26Fab-645dsscFv (LC-scFv) (bispecific antibody, To be checked by chain lengths; also called Fab-dsscFv (LC-scFv)) heavy: EVQLVESGGGLVQPGGSLRLSCAASGFTFTNYGIHWIRQAPGKGLEWVASISPSGGLTYYRDSVKGRFTISRDDAKNSPYLQMNSLRAEDTAVYYCATGGEGIFDYWGQGTLVTVSSASTKGPSVFPLAPSSKSTSGGTAALGCLVKDYFPEPVTVSWNSGALTSGVHTFPAVLQSSGLYSLSSVVTVPSSSLGTQTYICNVNHKPSNTKVDKKVEPKSC light: DIQMTQSPSSLSASVGDRVTITCRATQSIYNALAWYQQKPGKAPKLLIYNANTLHTGVPSRFSASGSGTDSTLTISSLQPEDFATYYCQQYYDYPLTFGGGTKVEIKRTVAAPSVFIFPPSDEQLKSGTASVVCLLNNFYPREAKVQWKVDNALQSGNSQESVTEQDSKDSTYSLSSTLTLSKADYEKHKVYACEVTHQGLSSPVTKSFNRGECSGGGGSGGGGSEVQLLESGGGLVQPGGSLRLSCAVSGIDLSNYAINWVRQAPGKCLEWIGIIWASGTTFYATWAKGRFTISRDNSKNTVYLQMNSLRAEDTAVYYCARTVPGYSTAPYFDLWGQGTLVTVSSGGGGSGGGGSGGGGSGGGGSDIQMTQSPSSVSASVGDRVTITCQSSPSVWSNFLSWYQQKPGKAPKLLIYEASKLTSGVPSRFSGSGSGTDFTLTISSLQPEDFATYYCGGGYSSISDTTFGCGTKVEIKRT |  |  |  |  |  |  |  |  |  | 1.29 nM | 0.000222 s⁻¹ | 172000 M⁻¹ s⁻¹ |  |

Further lines, with some results ahead:

| Kd [3] | koff [3] | kon [3] | Kd [4] | koff [4] | kon [4] | Kd [5] | koff [5] | kon [5] | Kd [7] | koff [7] | kon [7] | Binder | other results |
| --- | --- | --- | --- | --- | --- | --- | --- | --- | --- | --- | --- | --- | --- |
| 1.11 nM | 0.000234 s⁻¹ | 211000 M⁻¹ s⁻¹ | 1.05 nM | 0.000207 s⁻¹ | 197000 M⁻¹ s⁻¹ | 1 nM | 0.000209 s⁻¹ | 209000 M⁻¹ s⁻¹ |  |  |  | Single linker A26Fab-645dsFv (HC-vH linked) (bispecific antibody, Three polypeptides; the free 645dsvL is held to the linked 645dsvH by the disulphide G44C (vH) / G100C (vL); all are the same molecule; also called single linker Fab-dsFv (HC-vH)) heavy: EVQLVESGGGLVQPGGSLRLSCAASGFTFTNYGIHWIRQAPGKGLEWVASISPSGGLTYYRDSVKGRFTISRDDAKNSPYLQMNSLRAEDTAVYYCATGGEGIFDYWGQGTLVTVSSASTKGPSVFPLAPSSKSTSGGTAALGCLVKDYFPEPVTVSWNSGALTSGVHTFPAVLQSSGLYSLSSVVTVPSSSLGTQTYICNVNHKPSNTKVDKKVEPKSCSGGGGSGGGGTGGGGSEVQLLESGGGLVQPGGSLRLSCAVSGIDLSNYAINWVRQAPGKCLEWIGIIWASGTTFYATWAKGRFTISRDNSKNTVYLQMNSLRAEDTAVYYCARTVPGYSTAPYFDLWGQGTLVTVSS light: DIQMTQSPSSLSASVGDRVTITCRATQSIYNALAWYQQKPGKAPKLLIYNANTLHTGVPSRFSASGSGTDSTLTISSLQPEDFATYYCQQYYDYPLTFGGGTKVEIKRTVAAPSVFIFPPSDEQLKSGTASVVCLLNNFYPREAKVQWKVDNALQSGNSQESVTEQDSKDSTYSLSSTLTLSKADYEKHKVYACEVTHQGLSSPVTKSFNRGEC VL: DIQMTQSPSSVSASVGDRVTITCQSSPSVWSNFLSWYQQKPGKAPKLLIYEASKLTSGVPSRFSGSGSGTDFTLTISSLQPEDFATYYCGGGYSSISDTTFGCGTKVEIKRT |  |
| 2.31 nM | 0.000262 s⁻¹ | 113000 M⁻¹ s⁻¹ | 1.49 nM | 0.000188 s⁻¹ | 126000 M⁻¹ s⁻¹ | 3.17 nM | 0.000235 s⁻¹ | 74000 M⁻¹ s⁻¹ |  |  |  | Single linker A26Fab-645dsFv (LC-vL linked) (bispecific antibody, Three polypeptides; the free 645dsvH is held to the linked 645dsvL by the disulphide G44C (vH) / G100C (vL); all are the same molecule; also called single linker Fab-dsFv (LC-vL)) heavy: EVQLVESGGGLVQPGGSLRLSCAASGFTFTNYGIHWIRQAPGKGLEWVASISPSGGLTYYRDSVKGRFTISRDDAKNSPYLQMNSLRAEDTAVYYCATGGEGIFDYWGQGTLVTVSSASTKGPSVFPLAPSSKSTSGGTAALGCLVKDYFPEPVTVSWNSGALTSGVHTFPAVLQSSGLYSLSSVVTVPSSSLGTQTYICNVNHKPSNTKVDKKVEPKSC light: DIQMTQSPSSLSASVGDRVTITCRATQSIYNALAWYQQKPGKAPKLLIYNANTLHTGVPSRFSASGSGTDSTLTISSLQPEDFATYYCQQYYDYPLTFGGGTKVEIKRTVAAPSVFIFPPSDEQLKSGTASVVCLLNNFYPREAKVQWKVDNALQSGNSQESVTEQDSKDSTYSLSSTLTLSKADYEKHKVYACEVTHQGLSSPVTKSFNRGECSGGGGSGGGGSGGGGSDIQMTQSPSSVSASVGDRVTITCQSSPSVWSNFLSWYQQKPGKAPKLLIYEASKLTSGVPSRFSGSGSGTDFTLTISSLQPEDFATYYCGGGYSSISDTTFGCGTKVEIKRT VH: EVQLLESGGGLVQPGGSLRLSCAVSGIDLSNYAINWVRQAPGKCLEWIGIIWASGTTFYATWAKGRFTISRDNSKNTVYLQMNSLRAEDTAVYYCARTVPGYSTAPYFDLWGQGTLVTVSS | Kd [6]: 2.46 nM; koff [6]: 0.000223 s⁻¹; kon [6]: 91000 M⁻¹ s⁻¹ |
